The supplement of paper PMC9170038

Tested on: MS2 coat protein
Assay: apparent KD of MS2 coat protein; designed switch direction (-1 OFF switch, 1 ON switch): -1; higher = weaker reporter binding
In short: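 SNAP-549-labelled MS2 coat protein was titrated, doubling from 0.7 or 1.5 nM to 3 µM, over designed RNA switches transcribed on Illumina chips by stalled E. coli RNA polymerase. Runs were done without input, with 200 uM small-molecule ligand, or with an oligonucleotide input. Apparent KD is the per-design median over clusters of curve-fitted normalised fluorescence.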

[1] = input ligand: microRNA oligo, concentration not stated
[2] = Eterna round: R95, input ligand: microRNA oligo, concentration not stated
[3] = Eterna round: R95, input ligand: FMN 200 uM
[4] = Eterna round: R95, input ligand: none

Row | Sequence | apparent KD of MS2 coat protein (input ligand: FMN 200 uM) [nM] | apparent KD of MS2 coat protein (input ligand: none) [nM] | apparent KD of MS2 coat protein [1] [nM] | apparent KD of MS2 coat protein [2] [nM] | apparent KD of MS2 coat protein [3] [nM] | apparent KD of MS2 coat protein [4] [nM]
1 | GCUGAAGGGUCGAUUACCAACAUGAGGAUCACCCAUGUUCGGAAUAAUUACAGGUUCGCUCGUCUCGAUGAAAGUCC [Eternabot (L1) Solution 19] (Eterna round: R97, puzzle: Sensor, turn-off variant 1) | 19.3 | 21.7 |  |  |  | 
2 | GCUGCACAUGUAGGAUAUCUGCACGUUUAGUGCAGAGAAGGACAUGAGGAUCACCCAUGUAGAUCAGCAGCAAUUAAUUUAAUU [ENG1/6-A3] (Eterna round: R96, puzzle: Exclusion NG 1) | 809 | 473 | 479 |  |  | 
3 | GCUGGACAAGGAUAUGCAAUCGUGCUUCGGCACGUAAGGUCACAUGAGGAUCACCCAUGUAGAAGGUGUCCAGC [E2/4-C2] (Eterna round: R97, puzzle: Exclusion 2) | 31.3 | 16.1 |  |  |  | 
4 | GCUGGGUCAGGAUAUACAGGGUCGAAAGAUCUGUGAUACCUACAUGAGGAUCACCCAUGUAGAAGGGACUGGGC [ChP 11-04-2015 #10] (Eterna round: R96, puzzle: Exclusion 2) | 43.9 | 18.9 | 14 |  |  | 
5 | GCUGGGUCAGGAUAUACAGGGUCGAAAGAUCUGUGAUACCUACAUGAGGAUCACCCAUGUAGAAGGGACUGGGC [ChP 11-04-2015 #10] (puzzle: Exclusion 2) |  |  |  | 14.2 |  | 
6 | GCUGGGUCAGGAUAUACGAGAUCGAAAGAUCGAAGAUCCGUACAUGAGGAUCACCCAUGUAGAAGGGACUGGGC [ChP 11-04-2015 #7] (puzzle: Exclusion 2) |  |  |  | 19.5 |  | 
7 | GCUGGUCGAGGAUAUACAUGAGGAUCACCCAUGUGAUCAGCAGUCCUCGGACUGCAAUGUAGAAGGUGACCAGC [E3/1-B1] (Eterna round: R97, puzzle: Exclusion 3) | 583 | 2270 |  |  |  | 
8 | GCUUGGCGAGGAUAUACAUGAGGAUCACCCAUGUGAGAGAAAAAAGUGAGGAAGAAAAGUAGAAGGCGCUGAGG [Mat - Exclusion 3 - Mod of Salish D57] (puzzle: Exclusion 3) |  |  |  | 51.2 | 143 | 61.8
9 | GCUUGUAGAGGAUAUACGAGGGCCCGAGCGGCGAGAGCCGCACAUGAGGAUCACCCAUGUAGAAGGCUACUAUU [JL-ex2-4.19 ViennaUCT mod] (Eterna round: R97, puzzle: Exclusion 2) | 358 | 133 |  |  |  | 
10 | GGAAAACAUGAGGAUCACCCAUGUAAGGAUAUGCAAAAGGAUAUAGAAGGAAAAAUAAGCAGAAGGUACAAAGG [salish99-ex1_r3_097] (puzzle: Exclusion 1) |  |  |  | 42.5 | 50.9 | 43.5
11 | GGAAACCUACCGCGACAUGAGGAUCACCCAUGUGAUUGGUUUUAGGAUAUCUGGAGAAUCCAGACAGAGAAGGAGGGCCGUCGC [Eternabot solution 38] (Eterna round: R96, puzzle: Exclusion NG 3) | 77.5 | 45.1 | 28.5 |  |  | 
12 | GGAAAGGUAGGAUAUACGAAGAAAAAGGGUAGAAGAAGAACACAUGAGGAUCACCCAUGUAGAAGGACCAAAGC [Mat - Exclusion 2 - Mod of my Tesla design - D15] (puzzle: Exclusion 2) |  |  |  | 20.9 | 56.5 | 23.9
13 | GGAAAGGUAGGAUAUACGAAGAAAAAGGGUAGAAGAAUAACACAUGAGGAUCACCCAUGUAGAAGGACCAAAGC [Mat - Exclusion 2 - Mod of my Tesla design - D14] (puzzle: Exclusion 2) |  |  |  | 25.1 | 96.8 | 25.8
14 | GGAAGGCGAGGAUAUGCAAUAAAGCAGGCGAAGGCCUGCAAACAUGAGGAUCACCCAUGUAGAAGGCGCGAGAA [AK-MS2ROC-r4-exclusion2-6.6] (Eterna round: R97, puzzle: Exclusion 2) | 17.2 | 26.1 |  |  |  | 
15 | GGAAGGCGAGGAUAUGCAAUAAUACACUCGAAGGAGUGAUAACAUGAGGAUCACCCAUGUAGAAGGCGCGAGAA [AK-MS2ROC-r4-exclusion2-6] (Eterna round: R97, puzzle: Exclusion 2) | 36.1 | 36.1 |  |  |  | 
